{
  "source": "patent US20220380801A1",
  "about": "“TRIPARTITE SYSTEMS FOR PROTEIN DIMERIZATION AND METHODS OF USE” (priority 2019, published 2022)",
  "target": "DBD-FKBP12 (three tandem copies) (UniProt P62942)",
  "sequence (P62942 other isoform, or with tags, fused parts or gaps limits assumed)": "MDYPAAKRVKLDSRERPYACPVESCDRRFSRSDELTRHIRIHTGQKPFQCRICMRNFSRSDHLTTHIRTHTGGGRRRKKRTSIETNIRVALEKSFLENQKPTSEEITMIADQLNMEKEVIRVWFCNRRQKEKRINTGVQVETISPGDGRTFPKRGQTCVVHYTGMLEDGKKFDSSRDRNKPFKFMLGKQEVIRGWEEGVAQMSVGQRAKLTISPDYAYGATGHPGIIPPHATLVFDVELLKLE",
  "assay": "cell-based or functional assay",
  "data": [
    {"substance": "FRB-AD (from UniProt P42345 2021-2113)", "values": [
      {"measurement": "fold increase of luciferase expression, split transcription factor, rapalog", "result": 30, "unit": "fold"}
    ]}
  ]
}
